Bridges are numbered along the chain shown (N, C = ends). Where no end group is shown, it is not given here. [ ]: non-standard residue; d: D form. S5 = C=CCCC[C@](C)(N)C(=O)O

The target in assay [1] is T1, interaction between p110α E545K and IRS1 (Homo sapiens, UniProt P35568).
T1 construct: In KI DLD1 cells, IRS1 was co-immunoprecipitated with p110α E545K but not the WT p110α; endogenous in cells; host or cells: DLD1 p110α E545K 3×FLAG knock-in cells (rAAV gene targeting of the endogenous allele)
T1 sequence (P35568 1-1242): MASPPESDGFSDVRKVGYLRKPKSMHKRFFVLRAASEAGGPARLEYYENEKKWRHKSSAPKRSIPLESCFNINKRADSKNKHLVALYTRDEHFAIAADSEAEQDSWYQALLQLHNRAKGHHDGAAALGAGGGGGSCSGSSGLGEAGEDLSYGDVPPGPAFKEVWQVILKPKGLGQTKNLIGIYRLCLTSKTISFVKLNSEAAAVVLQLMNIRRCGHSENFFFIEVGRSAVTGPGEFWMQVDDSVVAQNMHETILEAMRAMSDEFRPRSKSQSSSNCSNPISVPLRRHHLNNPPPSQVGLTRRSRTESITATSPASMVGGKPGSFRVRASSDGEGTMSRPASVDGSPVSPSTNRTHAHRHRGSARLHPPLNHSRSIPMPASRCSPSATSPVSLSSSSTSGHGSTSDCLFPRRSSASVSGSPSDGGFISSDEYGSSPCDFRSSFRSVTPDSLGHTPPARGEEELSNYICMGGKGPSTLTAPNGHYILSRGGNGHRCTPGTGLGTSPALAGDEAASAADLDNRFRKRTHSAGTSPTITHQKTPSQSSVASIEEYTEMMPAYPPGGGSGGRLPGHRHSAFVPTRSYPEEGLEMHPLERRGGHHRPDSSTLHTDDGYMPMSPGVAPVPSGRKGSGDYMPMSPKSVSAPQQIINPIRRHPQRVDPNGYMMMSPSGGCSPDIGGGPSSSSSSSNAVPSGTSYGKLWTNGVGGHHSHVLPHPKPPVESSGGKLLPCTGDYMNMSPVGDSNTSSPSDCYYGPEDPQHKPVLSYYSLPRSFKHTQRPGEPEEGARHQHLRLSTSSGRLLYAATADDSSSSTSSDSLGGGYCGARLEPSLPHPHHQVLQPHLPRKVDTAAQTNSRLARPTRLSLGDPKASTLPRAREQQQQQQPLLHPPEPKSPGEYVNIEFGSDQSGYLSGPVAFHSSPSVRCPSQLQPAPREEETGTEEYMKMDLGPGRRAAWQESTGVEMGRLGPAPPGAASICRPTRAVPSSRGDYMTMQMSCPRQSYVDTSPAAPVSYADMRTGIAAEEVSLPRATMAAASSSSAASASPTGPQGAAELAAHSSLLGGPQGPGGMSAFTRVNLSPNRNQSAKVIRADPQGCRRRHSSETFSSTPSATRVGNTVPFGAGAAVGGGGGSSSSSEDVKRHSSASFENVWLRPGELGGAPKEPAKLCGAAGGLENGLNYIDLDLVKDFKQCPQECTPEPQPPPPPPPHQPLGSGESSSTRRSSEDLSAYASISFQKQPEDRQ
Put plainly: Peptide competition assay in cell lysates (anti-FLAG immunoprecipitation, anti-IRS1 blot). The settings on record: peptide added into cell lysates of p110α E545K 3×FLAG KI cells. The assay is classed as binding. On the procedure:
FIGS. 3(A-M) illustrate: (A, B) Mapping peptides (P3, SEQ ID NO: 1; P4 SEQ ID NO: 2; P5, SEQ ID NO: 3; P6, SEQ ID NO: 4) derived from mutant p110α that inhibit interaction between IRS1 and p110α E545K. The indicated peptides were added into cell lysates made from the p110α E545K 3×FLAG KI cells. Cell lysates were immunoprecipitated with beads conjugated with anti-FLAG antibodies and then blotted with anti-IRS1 antibodies. (C) Immunoblots of cell lysates made from the p110α E545K 3×FLAG KI cells. Cell lysates were immunoprecipitated with beads conjugated with anti-FLAG antibodies and then blotted with the indicated antibodies. (D) Immunoblots of cell lysate of Myc-tagged IRS1 plasmid, which co-transfected an ABD domain deletion construct of the FLAG-tagged p110α E545K mutant (ΔABD), incubated with the indicated amount of stapled p110α mutant peptides, and then immunoprecipitated with anti-FLAG antibodies and blotted with the indicated antibodies. (J, K) Immunoblot and graph of purified recombinant p110α E545K mutant proteins mixed with the indicated components and quantified using an in vitro lipid kinase assay. (L, M) Immunoblots of the indicated cell lines serum-starved, stimulated with 1 μg/ml insulin for 30 min, and then treated with or without the indicated peptides. Cell lysates were blotted with the indicated antibodies. All error bars show mean±SEM. *p<0.05, **p<0.001, t test.
(§1) For Co-immunoprecipitation (Co-IP), cells were harvested, washed with PBS, and then lysed in IP buffer (50 mMTris [pH 7.4], 150 mMNaCl, 5 mMEDTA [pH 8.0], 0.5% NP40, 1 mM PMSF, complete Protease Inhibitor Cocktail tablet [Roche]; supplemented with phosphatase inhibitors [1 mM Na3VO4, 20 mM NaF, 0.1 mM b-glycerophosphate, 20 mM sodium pyrophosphate] when necessary). For immunoblotting (IB) of phospho-specific proteins, unless stated otherwise, cells were lysed in urea buffer (100 mM NaH2PO4, 10 mM Tris-HCl, 8 M Urea, 1 mM Na3VO4, 20 mM NaF, 0.1 mM β-glycerophosphate, 20 mM sodium pyrophosphate, supplemented with complete Protease Inhibitor Cocktail tablet [Roche], pH 8.0). Lysates were then cleared by centrifugation (14,000 rpm, 10 min) and protein concentration in supernatants was determined with a BCA protein assay kit (Pierce, Rockford, Ill.). Equal amounts of total protein were used for IP or IB.
For in vitro peptide competition assay, the p110α mutant-FLAG-tagged cells were grown to 90% confluency, serum-starved overnight, and lysed as described previously. Peptides were then added to the cell lysates, incubated for 30 min at 4° C. and followed by immunoprecipitation assay.

The target in assay [2] is T2, IRS1-p110α E545K interaction in DLD1 cells (Homo sapiens, UniProt P35568).
T2 construct: endogenous in cells; host or cells: DLD1 p110α E545K 3×FLAG knock-in cells (rAAV gene targeting of the endogenous allele)
T2 sequence (P35568 1-1242): T1 sequence (P35568 1-1242)
Briefly: Co-IP after peptide added to culture medium of p110α E545K 3×FLAG KI DLD1 cells. The settings on record: peptide added to cell culture medium for 16 hr. It is filed as cell-based. Further details: dose or concentration left out as unconfirmed. On the procedure:
FIG. 4(A-F) illustrate: (A) Schematic diagram of linear and stapled WT and mutant peptides derived from p110α (SEQ ID NOs: 5, 6, 7 and 8). (B) Immunoblots of cell lysates immunoprecipitated with beads conjugated with anti-FLAG antibodies and then blotted with the indicated antibodies. Linear or stapled WT and mutant peptide were added into culture medium of the p110α E545K 3×FLAG KI cells for 16 hr. (C) Immunoblots of cell lysates immunoprecipitated with anti-p110α antibodies and then blotted with the indicated antibodies. Vaco481 CRC cells were treated with the stapled mutant peptides at the indicated concentration. (D) Immunoblots of cell lysates blotted with the indicated antibodies. The indicated cell lines were treated with the stapled mutant peptide. (E) Immunoblots of cell lysates blotted with the indicated antibodies. The indicated cancer cell lines were treated or untreated with stapled WT or mutant peptide at […] for 2 hr. (F) Immunoblots of cell lysates were blotted with the indicated antibodies. The indicated cancer cell lines were treated with or without […] of stapled mutant peptide for 2 hr.
as §1

In the case of “H2N-SEITEQEKD^549-FLW-S^553-HRHYC-COOH (SEITEQEK[S5]FLW[S5]HRHYC; staple 9-13; not fully specified (N-terminus, C-terminus); printed as H2N-SEITEQEKD549-FLW-S553-HRHYC-COOH; listed as Homo sapiens) [stapled WT peptide, stapled wild-type p110α counterpart of the stapled mutant peptide, used as control, reference compound]”, the “inhibition of the interaction between p110α E545K and IRS1” value in assay [1] is “did not inhibit”. Moreover, the “disruption of IRS1-p110α E545K interaction in DLD1 cells” value in assay [2] is listed as “neither the linear mutant peptide nor the stapled WT peptide affected the interaction”.
Take “H2N-SEITKQEK-D^549-FLW-S^553-HRHYC-COOH [stapled mutant peptide]”: the “inhibition of the interaction between p110α E545K and IRS1” value is listed as “almost completely disrupted” in assay [1] and “disrupted” in assay [1] (listed as stapled polypeptide substantially homologous to the C-terminal α-helical motif o). Also, in assay [2], the “disruption of IRS1-p110α E545K interaction in DLD1 cells” value is reported as “effectively disrupted”.

These data come from patent US20140005119A1, “COMPOSITIONS AND METHODS FOR INHIBITING THE ACTIVITY OF P110a MUTANT PROTEINS” (Case Western Reserve University, priority 2012, published 2014).
